The text below walks through data of article PMC5716173.

As a reminder, the Kd is the free concentration of one partner at which half of the binding sites on the other are occupied at equilibrium, for simple one-to-one binding.

Where two headings read alike, the source gives them in different places.

Assay in all cases: fluorescence anisotropy
On the technique in general: Polarisation of emitted light reports the rotation of a fluorescent probe.

For data set [1], the target named is T1, PabPolB exo- (family B DNA polymerase, exonuclease-deficient) (Pyrococcus abyssi, UniProt P0CL77 1-771, D215A).
T1 sequence: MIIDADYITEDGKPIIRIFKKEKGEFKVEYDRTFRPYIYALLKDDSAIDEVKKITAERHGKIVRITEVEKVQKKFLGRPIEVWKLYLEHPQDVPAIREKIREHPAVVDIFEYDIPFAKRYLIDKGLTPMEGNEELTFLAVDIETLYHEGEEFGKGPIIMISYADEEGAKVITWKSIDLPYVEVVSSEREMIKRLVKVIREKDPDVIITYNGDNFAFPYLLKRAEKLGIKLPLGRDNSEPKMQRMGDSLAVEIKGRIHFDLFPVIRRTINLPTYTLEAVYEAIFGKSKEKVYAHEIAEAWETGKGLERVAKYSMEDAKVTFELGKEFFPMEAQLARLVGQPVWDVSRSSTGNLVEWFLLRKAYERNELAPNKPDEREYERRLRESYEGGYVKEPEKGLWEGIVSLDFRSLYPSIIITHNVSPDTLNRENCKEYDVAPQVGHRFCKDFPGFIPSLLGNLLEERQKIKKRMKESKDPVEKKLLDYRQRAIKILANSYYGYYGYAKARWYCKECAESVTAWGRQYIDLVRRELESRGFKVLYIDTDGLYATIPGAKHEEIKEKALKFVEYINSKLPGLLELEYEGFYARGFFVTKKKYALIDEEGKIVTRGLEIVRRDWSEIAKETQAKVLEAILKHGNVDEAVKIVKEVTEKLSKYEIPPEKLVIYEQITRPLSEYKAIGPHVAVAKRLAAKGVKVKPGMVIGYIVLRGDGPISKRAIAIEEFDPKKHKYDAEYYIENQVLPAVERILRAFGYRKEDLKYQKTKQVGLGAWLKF

Data set [2] addresses T1, PabPolB exo- (family B DNA polymerase, …). The source holds these as a separate data set.
Data set [3] shares this target. This is another data set of the same source.
Data set [4] has the same target. The source holds these as a separate data set.
Data set [5] shares this target. This is another data set of the same source.
Data set [6] has the same target. The source holds these as a separate data set.

B1: HEX-labeled primer/template 18/25 (dsDNA)
DNA 1: CGCCGGGCCGAGCCGTGC
DNA 2: AGGTCGTGCACGGCTCGGCCCGGCG
Turning to B1, the Kd in data set [1] was found to be 17 ± 2 nM; in data set [2], 25 ± 3 nM; in data set [3], 7 ± 1 nM; in data set [4] it was 20 ± 6 nM; in data set [5] it was 43 ± 6 nM; in data set [6] it was 38 ± 6 nM.
